Assay results published in patent US20260273049A1 (ALLIGATOR BIOSCIENCE, published 2026).

Experiments:
[1] = biological target: human CD40 expressed on cells (CD40 reporter cells, HEK Blue CD40L cells, B cells, Raji cells) (human, UniProt P25942 21-277); assay: cell-based or functional assay
[2] = biological target: T1, human CEACAM1 expressed on CHO cells (human, UniProt P13688 35-526); assay: flow cytometry on CEACAM1-transfected CHO cells, fluorochrome-conjugated anti-human IgG [1/2) B]
T1 construct: whole, on cells; also called CHO-CEACAM1; CEACAM1 on cells
T1 sequence (looked up): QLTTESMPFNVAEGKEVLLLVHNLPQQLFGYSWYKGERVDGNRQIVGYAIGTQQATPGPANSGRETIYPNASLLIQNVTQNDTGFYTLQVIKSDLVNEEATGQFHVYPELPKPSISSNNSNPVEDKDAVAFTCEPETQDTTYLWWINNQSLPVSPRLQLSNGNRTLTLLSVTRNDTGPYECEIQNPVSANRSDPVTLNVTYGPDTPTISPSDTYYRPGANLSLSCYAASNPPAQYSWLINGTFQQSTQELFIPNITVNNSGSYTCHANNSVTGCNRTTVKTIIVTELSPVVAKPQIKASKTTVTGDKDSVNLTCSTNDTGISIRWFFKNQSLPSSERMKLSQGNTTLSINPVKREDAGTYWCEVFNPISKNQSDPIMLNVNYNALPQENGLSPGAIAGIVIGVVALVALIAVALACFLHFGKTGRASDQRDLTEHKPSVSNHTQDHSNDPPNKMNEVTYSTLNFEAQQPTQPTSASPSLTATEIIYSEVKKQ
Excerpt: The human CEACAM5 and CEACAM1 genes were cloned into pcDNA3.1, and the vector was subsequently stably transfected into CHO cells. […] Binding of the antibodies was detected using fluorochrome-conjugated anti-human IgG and analyzed using flow cytometry.

[3] = biological target: T2, human CEACAM1 (hCEACAM-1, #2244-CM-050, R&D Systems) (human, UniProt P13688 35-428); assay: ELISA; antigen coated at 0.5 µg/mL, bsAb titrated, anti-human kappa-HRP, luminescence [5/7) Multi44]
T2 construct: Bought protein
T2 sequence (looked up): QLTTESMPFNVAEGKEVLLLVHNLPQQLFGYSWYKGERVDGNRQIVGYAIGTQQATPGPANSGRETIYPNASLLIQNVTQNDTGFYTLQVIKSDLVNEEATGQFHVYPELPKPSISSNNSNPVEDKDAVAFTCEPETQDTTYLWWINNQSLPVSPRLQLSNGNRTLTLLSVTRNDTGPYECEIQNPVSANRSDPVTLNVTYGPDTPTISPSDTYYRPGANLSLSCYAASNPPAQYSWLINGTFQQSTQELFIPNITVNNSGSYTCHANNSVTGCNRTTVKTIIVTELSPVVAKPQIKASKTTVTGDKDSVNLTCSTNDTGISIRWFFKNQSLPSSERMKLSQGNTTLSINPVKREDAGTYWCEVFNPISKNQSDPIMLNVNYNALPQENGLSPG
Experimental: (§1) 96-well plates were coated with 0.5 μg/mL antigen, hCEACAM-1 (2244-CM-050, R&D Systems), hCEACAM-5 (4128-CM-050, R&D Systems), hCEACAM-6 (3934-CM-050, R&D Systems) or CEACAM-8 (9639-CM-050, R&D Systems) in PBS over night at 4° C. After washing in PBS/0.05% Tween 20 (PBST), the plates were blocked with PBST, 2% BSA for at least 30 minutes at room temperature before a second round of washing. RUBY bsAbs, diluted in PBST, 0.5% BSA, were then added and allowed to bind for at least 1 hour at room temperature. […] Finally, a final round of washing was performed and bound complexes detected using SuperSignal Pico Luminescent as substrate and luminescence signals were measured using Fluostar Optima.

[4] = biological target: T3, human CEACAM6 (hCEACAM-6, #3934-CM-050, R&D Systems) (human, UniProt P40199 35-320); assay: as above
T3 construct: Bought protein
T3 sequence (looked up): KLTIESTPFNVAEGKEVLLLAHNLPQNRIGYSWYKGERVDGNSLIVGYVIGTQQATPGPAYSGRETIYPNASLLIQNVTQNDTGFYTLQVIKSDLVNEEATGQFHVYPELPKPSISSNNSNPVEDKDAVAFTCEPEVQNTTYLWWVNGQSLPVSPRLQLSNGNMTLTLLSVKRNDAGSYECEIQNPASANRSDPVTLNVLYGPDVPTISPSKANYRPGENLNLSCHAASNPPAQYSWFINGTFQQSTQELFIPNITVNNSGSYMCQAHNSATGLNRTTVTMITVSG
Experimental: as §1

Chain of human CD40 expressed on cells (CD40 reporter cells, HEK Blue CD40L cells, B cells, Raji cells) (P25942 21-277): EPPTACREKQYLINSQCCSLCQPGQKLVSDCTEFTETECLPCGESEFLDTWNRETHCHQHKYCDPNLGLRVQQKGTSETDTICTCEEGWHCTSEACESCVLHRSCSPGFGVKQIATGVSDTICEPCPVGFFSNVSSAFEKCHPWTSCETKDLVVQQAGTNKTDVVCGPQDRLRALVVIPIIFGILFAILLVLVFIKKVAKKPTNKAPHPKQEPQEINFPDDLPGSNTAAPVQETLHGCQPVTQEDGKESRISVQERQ

B1: Multi44 (bispecific antibody)
heavy 1: not shown
light: DIQMTQSPSSLSASVGDRVTITCRASQSISSYLNWYQEKPGKAPKLLIYAASSLQSGVPSRFSGSGSGTDFTLTISSLQPEDFATYYCQQWGYLLTFGQGTKLEIKRTVAAPSVFIFPPSDEQLKSGTASVVCYLNNFYPREAKVQWKVDNALQSGNSQESVTEQDSKDSTYSLWSTLTLSKADYEKHKVYACEVTHQGLSSPVTKSFNRGEC
heavy 2: EVQLLESGGGLVQPGGSLRLSCAASGFTFSTYGMHWVREAPGKGLEWLSYISGGSSYIFYADSVKGRFTISRDNSKNTLYLQMNSLRAEDTAVYYCARILRGGSGMDLWGQGTLVTVSSASTKGPSVFPLAPSSKSTSGGTAALGCLVKDYFPEPVTVSWNSGALTSGVHTFPAVLQSSGLYSLTSVVEVPSSSLGTQTYICNVNHKPSNTKVDKKVEPKSC
notes: Optimized RUBY format; copies: 2 + 2 + 2
In the case of B1, the “EC50 (nM), HEK Blue CD40L SEAP reporter, CHO-CEACAM5 crosslinking, 0 Raji sink cells/well” value [1] is reported as 0.02 nM, the “EC50 (nM), HEK Blue CD40L SEAP reporter, CHO-CEACAM5 crosslinking, 10 000 Raji sink cells/well” value [1] is reported as 0.05 nM and the “EC50 (nM), HEK Blue CD40L SEAP reporter, CHO-CEACAM5 crosslinking, 30 000 Raji sink cells/well” value [1] is reported as 0.08 nM. The “EC50 (nM), HEK Blue CD40L SEAP reporter, CHO-CEACAM5 crosslinking, 90 000 Raji sink cells/well” value [1] was 0.16 nM, the binding result [2] was “no binding (tested: 400 nM)” and the binding result [3] was “no binding (tested: 100 nM)”. B1: no binding (tested: 100 nM) [4].
